According to patent WO2025026282A1 (dated 2025):

What was measured:
[1] = target: T1, Human PD-L1 (human, UniProt Q9NZQ7 19-238, limits assumed); experiment: BLI (Octet R8), human PD-L1
T1 construct: Diluted to 2 ug/ml in KB buffer for BLI; construct not described

[2] = target: T2, human CD3 epsilon (human, UniProt P07766 23-126, limits assumed); experiment: SPR (Biacore), antigen captured, antibody as analyte
T2 construct: the same molecule is used here for both
T2 sequence (P07766 23-126 limits assumed): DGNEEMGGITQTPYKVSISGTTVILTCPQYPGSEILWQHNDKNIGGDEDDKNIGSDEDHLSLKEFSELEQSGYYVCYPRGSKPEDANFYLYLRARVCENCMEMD

T1 sequence (Q9NZQ7 19-238 limits assumed): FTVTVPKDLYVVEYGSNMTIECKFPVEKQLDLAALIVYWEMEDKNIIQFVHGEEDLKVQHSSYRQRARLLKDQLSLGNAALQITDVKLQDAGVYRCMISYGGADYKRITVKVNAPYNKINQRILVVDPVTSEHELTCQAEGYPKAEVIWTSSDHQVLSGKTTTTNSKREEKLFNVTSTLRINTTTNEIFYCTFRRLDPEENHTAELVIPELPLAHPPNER

| Kd [1] [nM] | Kd [2] [nM] | Binder |
| --- | --- | --- |
| 72.8 | – | 12A69 (other) chain 1: QAVVTQEPSLTVSPGGTVTLTCRSSTGAVTTSNYANWVQQKPGQAPRGLIGGTNKRAPWTPARFSGSLLGGKAALTLSGAQAEDEADYYCALWYSNLWVFGGGTKLTVLRTVAAQVQLVQSGAEVKKPGSSVKVSCKTSGDTFSSYAISWVRDAPGQCLEWMGGIIPIFGKAHYAQKFQGRVTITADESTSTAYMELSSLRSEDTAVYFCARKFHFVSGSPFGMDVWGQGTTVTVSSASEPKSSDKTHTCPPCPAPPVAGPSVFLFPPKPKDTLMISRTPEVTCVVVDVSQEDPEVKFNWYVDGVEVHNAKTKPREEQFNSTYRVVSVLTVLHQDWLNGKEYKCKVSNKGLPSSIEKTISKAKGQPREPQVYTLPPSRDELTKNQVSLWCLVKGFYPSDIAVEWESNGQPENNYKTTPPVLDSDGSFFLYSKLTVDKSRWQQGNVFSCSVMHEALHNHYTQKSLSLSP chain 2: EVQLVESGGGLVQPGGSLRLSCAASGFTFTDYYMNWVRQAPGKALEWLGFIRNKVNGDTTEYAASVKGRFTISRDDSKNSLYLQMNSLKTEDTAVYYCARDKGIAYYFDYWGQGTLVTVSSASTKGPSVFPLAPSSKSTSGGTAALGCLVKDYFPEPVTVSWNSGALTSGVHTFPAVLQSSGLYSLSSVVTVPSSSLGTQTYICNVNHKPSNTKVDKKVEPKSCDGGGGSGGGGSEIVLTQSPATLSLSPGERATLSCRASQSVSSYLAWYQKKPGQAPRLLIYDASNRATGIPARFSGSGSGTDFTLTISSLEPEDFAVYYCQQRSNAPTFGCGTKVEIKRTVAAEVQLVESGGGLVQPGGSLRLSCAASGFTFSTYAMNWVRQAPGKGLEWVGRIRSKYNNYATYYADSVKGRFTISRDDSKNSLYLQMNSLRAEDTAVYYCVRHGNFGTSYVSWFAYWGQGTLVTVSS chain 3: EVQLVESGGGLVQPGGSLRLSCAASGFTFTDYYMNWVRQAPGKALEWLGFIRNKVNGDTTEYAASVKGRFTISRDDSKNSLYLQMNSLKTEDTAVYYCARDKGIAYYFDYWGQGTLVTVSSASTKGPSVFPLAPSSKSTSGGTAALGCLVKDYFPEPVTVSWNSGALTSGVHTFPAVLQSSGLYSLSSVVTVPSSSLGTQTYICNVNHKPSNTKVDKKVEPKSCDKTHTCPPCPAPPVAGPSVFLFPPKPKDTLMISRTPEVTCVVVDVSQEDPEVKFNWYVDGVEVHNAKTKPREEQFNSTYRVVSVLTVLHQDWLNGKEYKCKVSNKGLPSSIEKTISKAKGQPREPQVYTLPPSRDELTKNQVSLSCAVKGFYPSDIAVEWESNGQPENNYKTTPPVLDSDGSFFLVSKLTVDKSRWQQGNVFSCSVMHEALHNRFTQKSLSLSP chain 4: EIVLTQSPATLSASPGERATLSCRASQSVSYIHWYQQKPGQSPRPWIHGTSNLATGVPARFSGSGSGTDFTLTISSLEPEDAAVYYCQQWSSNLSTFGGGTKVEIKRTVAAPSVFIFPPSDEQLKSGTASVVCLLNNFYPREAKVQWKVDNALQSGNSQESVTEQDSKDSTYSLSSTLTLSKADYEKHKVYACEVTHQGLSSPVTKSFNRGEC |
| – | 118 | 12A44 (other) chain 1: QAVVTQEPSLTVSPGGTVTLTCRSSTGAVTTSNYANWVQQKPGQAPRGLIGGTNKRAPWTPARFSGSLLGGKAALTLSGAQAEDEADYYCALWYSNLWVFGGGTKLTVLRTVAAQVQLVQSGAEVKKPGSSVKVSCKTSGDTFSSYAISWVRDAPGQCLEWMGGIIPIFGKAHYAQKFQGRVTITADESTSTAYMELSSLRSEDTAVYFCARKFHFVSGSPFGMDVWGQGTTVTVSSASEPKSSDKTHTCPPCPAPPVAGPSVFLFPPKPKDTLMISRTPEVTCVVVDVSQEDPEVKFNWYVDGVEVHNAKTKPREEQFNSTYRVVSVLTVLHQDWLNGKEYKCKVSNKGLPSSIEKTISKAKGQPREPQVYTLPPSRDELTKNQVSLWCLVKGFYPSDIAVEWESNGQPENNYKTTPPVLDSDGSFFLYSKLTVDKSRWQQGNVFSCSVMHEALHNHYTQKSLSLSP chain 2: EVQLVESGGGLVQPGGSLRLSCAASGFTFTDYYMNWVRQAPGKALEWLGFIRNKVNGDTTEYAASVKGRFTISRDDSKNSLYLQMNSLKTEDTAVYYCARDKGIAYYFDYWGQGTLVTVSSASTKGPSVFPLAPSSKSTSGGTAALGCLVKDYFPEPVTVSWNSGALTSGVHTFPAVLQSSGLYSLSSVVTVPSSSLGTQTYICNVNHKPSNTKVDKKVEPKSCDGGGGSGGGGSEIVLTQSPATLSLSPGERATLSCRASQSVSSYLAWYQKKPGQAPRLLIYDASNRATGIPARFSGSGSGTDFTLTISSLEPEDFAVYYCQQRSNWPTFGCGTKVEIKRTVAAEVQLVESGGGLVQPGGSLRLSCAASGFTFSTYAMNWVRQAPGKGLEWVGRIRSQYNNYATYYADSVKGRFTISRDDSKNSLYLQMNSLRAEDTAVYYCVRHGNFGTSYVSWFAYWGQGTLVTVSS chain 3: EVQLVESGGGLVQPGGSLRLSCAASGFTFTDYYMNWVRQAPGKALEWLGFIRNKVNGDTTEYAASVKGRFTISRDDSKNSLYLQMNSLKTEDTAVYYCARDKGIAYYFDYWGQGTLVTVSSASTKGPSVFPLAPSSKSTSGGTAALGCLVKDYFPEPVTVSWNSGALTSGVHTFPAVLQSSGLYSLSSVVTVPSSSLGTQTYICNVNHKPSNTKVDKKVEPKSCDKTHTCPPCPAPPVAGPSVFLFPPKPKDTLMISRTPEVTCVVVDVSQEDPEVKFNWYVDGVEVHNAKTKPREEQFNSTYRVVSVLTVLHQDWLNGKEYKCKVSNKGLPSSIEKTISKAKGQPREPQVYTLPPSRDELTKNQVSLSCAVKGFYPSDIAVEWESNGQPENNYKTTPPVLDSDGSFFLVSKLTVDKSRWQQGNVFSCSVMHEALHNRFTQKSLSLSP chain 4: EIVLTQSPATLSASPGERATLSCRASQSVSYIHWYQQKPGQSPRPWIHGTSNLATGVPARFSGSGSGTDFTLTISSLEPEDAAVYYCQQWSSNLSTFGGGTKVEIKRTVAAPSVFIFPPSDEQLKSGTASVVCLLNNFYPREAKVQWKVDNALQSGNSQESVTEQDSKDSTYSLSSTLTLSKADYEKHKVYACEVTHQGLSSPVTKSFNRGEC |
| – | 176 | 12A46 (other, Kabat position; choice of chain inferred; also called V100C A (12A46)) chain 1: QAVVTQEPSLTVSPGGTVTLTCRSSTGAVTTSNYANWVQQKPGQAPRGLIGGTNKRAPWTPARFSGSLLGGKAALTLSGAQAEDEADYYCALWYSNLWVFGGGTKLTVLRTVAAQVQLVQSGAEVKKPGSSVKVSCKTSGDTFSSYAISWVRDAPGQCLEWMGGIIPIFGKAHYAQKFQGRVTITADESTSTAYMELSSLRSEDTAVYFCARKFHFVSGSPFGMDVWGQGTTVTVSSASEPKSSDKTHTCPPCPAPPVAGPSVFLFPPKPKDTLMISRTPEVTCVVVDVSQEDPEVKFNWYVDGVEVHNAKTKPREEQFNSTYRVVSVLTVLHQDWLNGKEYKCKVSNKGLPSSIEKTISKAKGQPREPQVYTLPPSRDELTKNQVSLWCLVKGFYPSDIAVEWESNGQPENNYKTTPPVLDSDGSFFLYSKLTVDKSRWQQGNVFSCSVMHEALHNHYTQKSLSLSP chain 2: EVQLVESGGGLVQPGGSLRLSCAASGFTFTDYYMNWVRQAPGKALEWLGFIRNKVNGDTTEYAASVKGRFTISRDDSKNSLYLQMNSLKTEDTAVYYCARDKGIAYYFDYWGQGTLVTVSSASTKGPSVFPLAPSSKSTSGGTAALGCLVKDYFPEPVTVSWNSGALTSGVHTFPAVLQSSGLYSLSSVVTVPSSSLGTQTYICNVNHKPSNTKVDKKVEPKSCDGGGGSGGGGSEIVLTQSPATLSLSPGERATLSCRASQSVSSYLAWYQKKPGQAPRLLIYDASNRATGIPARFSGSGSGTDFTLTISSLEPEDFAVYYCQQRSNWPTFGCGTKVEIKRTVAAEVQLVESGGGLVQPGGSLRLSCAASGFTFSTYAMNWVRQAPGKGLEWVGRIRSKYNNYATYYADSVKGRFTISRDDSKNSLYLQMNSLRAEDTAVYYCVRHGNFGTSYASWFAYWGQGTLVTVSS heavy: EVQLVESGGGLVQPGGSLRLSCAASGFTFTDYYMNWVRQAPGKALEWLGFIRNKVNGDTTEYAASVKGRFTISRDDSKNSLYLQMNSLKTEDTAVYYCARDKGIAYYFDYWGQGTLVTVSSASTKGPSVFPLAPSSKSTSGGTAALGCLVKDYFPEPVTVSWNSGALTSGVHTFPAVLQSSGLYSLSSVVTVPSSSLGTQTYICNVNHKPSNTKVDKKVEPKSCDKTHTCPPCPAPPVAGPSVFLFPPKPKDTLMISRTPEVTCVVVDVSQEDPEVKFNWYVDGVEVHNAKTKPREEQFNSTYRVVSVLTVLHQDWLNGKEYKCKVSNKGLPSSIEKTISKAKGQPREPQVYTLPPSRDELTKNQVSLSCAVKGFYPSDIAVEWESNGQPENNYKTTPPVLDSDGSFFLVSKLTVDKSRWQQGNVFSCSVMHEALHNRFTQKSLSLSP light: EIVLTQSPATLSASPGERATLSCRASQSVSYIHWYQQKPGQSPRPWIHGTSNLATGVPARFSGSGSGTDFTLTISSLEPEDAAVYYCQQWSSNLSTFGGGTKVEIKRTVAAPSVFIFPPSDEQLKSGTASVVCLLNNFYPREAKVQWKVDNALQSGNSQESVTEQDSKDSTYSLSSTLTLSKADYEKHKVYACEVTHQGLSSPVTKSFNRGEC |
